From patent US20190185562A1 come the findings set out here.

Test [1] deals with gp130 expressed endogenously on IMR-32/STAT3-Luc cells (human) (UniProt P40189). Description: cell-based or functional assay.
Test [2] concerns the target wild-type human GP130 on HEK293.STAT3.Luc.GP130.hLEPR reporter cells (human) (UniProt P40189). Kind of test: cell-based or functional assay.

wild-type human GP130 on HEK293.STAT3.Luc.GP130.hLEPR reporter cells (human), sequence (P40189 23-918): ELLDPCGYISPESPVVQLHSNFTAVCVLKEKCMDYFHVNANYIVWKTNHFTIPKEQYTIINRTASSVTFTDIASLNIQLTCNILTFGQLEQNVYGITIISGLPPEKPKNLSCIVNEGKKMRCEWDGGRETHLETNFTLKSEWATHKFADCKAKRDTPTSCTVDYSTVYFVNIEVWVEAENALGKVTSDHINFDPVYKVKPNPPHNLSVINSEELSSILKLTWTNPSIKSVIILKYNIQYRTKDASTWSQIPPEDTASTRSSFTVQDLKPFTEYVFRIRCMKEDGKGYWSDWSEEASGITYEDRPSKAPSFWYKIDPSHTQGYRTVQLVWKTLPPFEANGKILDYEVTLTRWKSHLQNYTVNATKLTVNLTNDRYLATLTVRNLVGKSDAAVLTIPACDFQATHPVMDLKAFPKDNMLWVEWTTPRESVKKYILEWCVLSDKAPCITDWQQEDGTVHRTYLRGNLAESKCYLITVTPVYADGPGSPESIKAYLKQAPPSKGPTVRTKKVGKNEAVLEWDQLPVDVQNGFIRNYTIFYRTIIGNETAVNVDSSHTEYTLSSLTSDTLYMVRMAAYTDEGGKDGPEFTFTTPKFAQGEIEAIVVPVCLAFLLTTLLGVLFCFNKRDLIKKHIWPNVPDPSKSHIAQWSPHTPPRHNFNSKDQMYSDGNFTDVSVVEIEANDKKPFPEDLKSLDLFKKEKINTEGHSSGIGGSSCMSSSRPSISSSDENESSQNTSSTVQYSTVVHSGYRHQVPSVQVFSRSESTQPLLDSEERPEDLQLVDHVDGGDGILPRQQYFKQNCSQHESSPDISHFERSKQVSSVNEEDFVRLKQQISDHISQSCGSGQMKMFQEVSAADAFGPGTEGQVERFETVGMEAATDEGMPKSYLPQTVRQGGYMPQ
gp130 expressed endogenously on IMR-32/STAT3-Luc cells (human), sequence (P40189 23-918): as above

B1: human Ciliary Neurotrophic Factor (ligand, UniProt P26441 2-200, looked up)
chain: AFTEHSPLTPHRRDLCSRSIWLARKIRSDLTALTESYVKHQGLNKNINLDSADGMPVASTDQWSELTEAERLQENLQAYRTFHVLLARLLEDQQVHFTPTEGDFHQAIHTLLLQVAAFAYQIEELMILLEYKIPRNEADGMPINVGDGGLFEKKLWGLKVLQELSQWTVRSIHDLRFISSHQTGIPARGSHYIANNKKM
B1 showed an EC50 of activation of IMR-32/STAT3-luc cells (STAT3-luciferase) in test [1] of 0.004 nM.

B2: human Oncostatin M (ligand, UniProt P13725 26-252, looked up)
chain: AAIGSCSKEYRVLLGQLQKQTDLMQDTSRLLDPYIRIQGLDVPKLREHCRERPGAFPSEETLRGLGRRGFLQTLNATLGCVLHRLADLEQRLPKAQDLERSGLNIEDLEKLQMARPNILGLRNNIYCMAQLLDNSDTAEPTKAGRGASQPPTPTPASDAFQRKLEGCRFLHGYHRFMHSVGRVFSKWGESPNRSRRHSPHQALRKGVRRTRPSRKGKRLMTRGQLPR
B2 had an EC50 of activation of IMR-32/STAT3-luc cells (STAT3-luciferase) in test [1] of 0.054 nM. In test [2], the EC50 (M), STAT3-luciferase activation of HEK293.STAT3.Luc.GP130.hLEPR (Y1141F) cells came out at 5.92e-10 M; the EC50 (M), STAT3-luciferase activation of HEK293.STAT3.Luc.GP130.hLEPR (a) cells came to 1.21e-10 M; the Percentage activation as compared to hOSM came to 100%; the Percentage maximum activation as compared to hOSM worked out at 100%.
